Data taken from PMC3971405, “Molecular basis for the fold organization and sarcomeric targeting of the muscle atrogin MuRF1” (Open Biology, 2014).

Key:
[1] = biological target: the molecule itself; assay: SEC-MALS; SEC-MALLS, Superdex 200 10/300, 20 mM Tris pH 8.0, 100 mM NaCl; injected at 0.7 mg/ml
[2] = biological target: the molecule itself; assay: crystal structure; crystals grown at 20°C in 35% MPD, 0.1 M sodium acetate pH 4.5, 20% glycerol, 20 mM NaF; four chains in the asymmetric unit; 2.1 Å
[3] = biological target: the molecule itself; assay: SEC-MALS; SEC-MALLS, Superdex 75 10/300 GL, 20 mM Tris pH 8.0, 50 mM NaCl; 1 ml injected at 1.5 mg/ml

B1: MuRF1^B2|CC|COS (B2 box, helix H1 and COS-box of MuRF1, residues 114-327, C298S) (domain or fragment)
chain: LQKGSHPMCKEHEDEKINIYCLTCEVPTCSMCKVFGIHKACEVAPLQSVFQGQKTELNNCISMLVAGNDRVQTIITQLEDSRRVTKENSHQVKEELSQKFDTLYAILDEKKSELLQRITQEQEKKLSFIEALIQQYQEQLDKSTKLVETAIQSLDEPGGATFLLTAKQLIKSIVEASKGSQLGKTEQGFENMDFFTLDLEHIADALRAIDFGTD
[1]
  stoichiometry N: 2

B2: MuRF1^CC (coiled-coil-prone segment of human MuRF1, residues 214-271) (domain or fragment)
chain: GAMDTLYAILDEKKSELLQRITQEQEKKLSFIEALIQQYQEQLDKSTKLVETAIQSLDEPG
notes: MuRF1 (E3 ubiquitin ligase, TRIM family), human, UniProtKB Q969Q1, residues 214-271 (D214 to G271); Cloned into pETM-11 (His6-tag and TEV site N-terminal); also called CC^214-271; MuRF1 CC segment; not shown: His6, N-terminal, cleaved
[2]
  stoichiometry N: 4
[3]
  stoichiometry N: ~2
